Drawing on patent publication US20190091332A1 (published 2019), this text covers IC50 for 9 molecules.

One may read the IC50 as the concentration needed to halve the response being measured. A lower IC50 goes with greater potency in that assay.

Experiment [1] deals with T1, human LAG3-huFc (human, UniProt P18627 23-450, limits assumed).
T1 construct: also called human LAG3-Fc; huLAG3-huFc; not shown: human Fc (huFc)
T1 sequence: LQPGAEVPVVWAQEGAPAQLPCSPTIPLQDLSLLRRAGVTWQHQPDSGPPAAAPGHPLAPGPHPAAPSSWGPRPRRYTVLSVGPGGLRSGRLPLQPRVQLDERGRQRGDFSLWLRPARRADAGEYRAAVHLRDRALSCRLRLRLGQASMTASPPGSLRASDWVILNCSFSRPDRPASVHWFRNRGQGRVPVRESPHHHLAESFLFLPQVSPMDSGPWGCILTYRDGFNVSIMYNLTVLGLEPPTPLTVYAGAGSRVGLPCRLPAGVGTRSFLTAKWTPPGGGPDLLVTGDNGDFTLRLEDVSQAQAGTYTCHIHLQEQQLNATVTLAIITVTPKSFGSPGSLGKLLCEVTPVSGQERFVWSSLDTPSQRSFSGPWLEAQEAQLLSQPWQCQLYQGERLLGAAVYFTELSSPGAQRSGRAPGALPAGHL
Description: flow cytometry competition: antibody pre-incubated with human LAG3-huFc, its binding to Daudi cells (MHC class II) read. As for the experimental part: (§1) Mouse anti-human LAG3 clones were tested for their ability to block hLAG3 interaction with human MHC Class II. Daudi cells (ATCC #CCL-213) were used as a cell line positive for human MHC class II expression. Daudi cells were blocked with 10 ug/ml of goat IgG in HBSS and 2% BCS on ice for 30 minutes and 0.5×10⁶ cells/sample were aliquoted into a 96-well V-bottom plate and blocking buffer removed. […] Cells were pelleted by centrifugation at 1200 rpm and washed twice with HBSS/2% BCS. […] Cells were washed twice as described above, resuspended in HBSS/2% BCS and read on the FACSCalibur.
A general note: A flow cytometer gives signals particle by particle.

Experiment [2] concerns the target T1, human LAG3-huFc. The experiment is described as above. The method, then:
as §1
This is another data set of the same source.

Experiment [3] deals with T1, human LAG3-huFc. Description: flow cytometry competition: antibody pre-incubated with biotinylated human LAG3-huFc, its binding to Daudi cells (MHC class II) read with streptavidin-PE. As for the experimental part: as §1, with “anti-human LAG3 and humanized anti-LAG3 clones were” for “anti-human LAG3 clones were”

B1: LB148.4A10.1H1 (antibody, V domains shown)
VH: EVQLLQSGAELVRSGASVKLSCTASGFNIEDYYMHWMKQRPEQGLEWIGWIDPVNGDTEYAPKFQGKATMTADTSSNTAYLHLNSLTSEDTAVYYCNFYDGYLFAFWGQGTLVTVSA
VL: DIVLTQAAPSVPVTPGESVSISCRSSKSLLHSDGNTYLYWLLQRPGQSPQLLIYRMSNLASGVPDRFSGSGSGTVFTLRISRLEAEDVGIYYCMQHLEYPFTFGGGTKLEIK
notes: also called Lag3 clone 4A10; mouse x [LAG3_H] mAb (LB148.4A10.1H1) IgG2a/kappa (HY)
In the case of B1, the IC50 in experiment [1] and in experiment [2] was 1.9 nM throughout.

B2: LB145.22D2.E1.1D1 (antibody, V domains shown)
VH: EVLLLQSGPELVKPGTSVKIPCKASGYTFTDYNVDWVKQRHGKGLEWIGDINPNNGGTIYSQKFKGKATLTVDKSSSTAFMELRSLTSEDTAVYFCARNYRWFGAMDHWGQGTSVTVSS
VL: DIVLTQSPASLAVSPGQRATISCKASQSLDYEGDSDMNWYQQKPGQPPRLLISGASNLESGIPARFSGSGSGTDFTVNIHPVEEEDAATYYCQQSTEDPRTFGGGTKLEIK
notes: also called mouse anti-human LAG3 clone 22D2; Lag3 clone 22D2
Turning to B2, the half-maximal inhibitory concentration (IC50) in experiment [1] and in experiment [2] was 2.1 nM throughout.

B3: 22D2 Chimera ([LAG3_H] mAb (LB145.22D2.E1.D1 (VH0/VL0) Geneart) IgG4 S228P/kappa (PX)) (antibody, V domains shown)
VH: EVLLLQSGPELVKPGTSVKIPCKASGYTFTDYNVDWVKQRHGKGLEWIGDINPNNGGTIYSQKFKGKATLTVDKSSSTAFMELRSLTSEDTAVYFCARNYRWFGAMDHWGQGTSVTVSS
VL: DIVLTQSPASLAVSPGQRATISCKASQSLDYEGDSDMNWYQQKPGQPPRLLISGASNLESGIPARFSGSGSGTDFTVNIHPVEEEDAATYYCQQSTEDPRTFGGGTKLEIK
notes: Chimeric antibody: 22D2 VH0/VL0 variable domains on human IgG4 S228P/kappa; also called Chimeric 22D2; Anti-hLAG3 clone 22D2 (chimeric antibody)
B3 registered an IC50 in experiment [3] of 2.5 nM.

B4: Hu22D2 VH6/VL3 (Ab 5) (antibody, human IgG4 S228P, kappa, V domains shown)
VH: QMQLVQSGPEVKKPGTSVKVSCKASGYTFTDYNVDWVRQARGQRLEWIGDINPNNGGTIYAQKFQERVTITVDKSTSTAYMELSSLRSEDTAVYYCARNYRWFGAMDHWGQGTTVTVSS
VL: DIVMTQTPLSLSVTPGQPASISCKASQSLDYEGDSDMNWYLQKPGQPPQLLIYGASNLESGVPDRFSGSGSGTDFTLKISRVEAEDVGVYYCQQSTEDPRTFGGGTKVEIKR
notes: Humanized 22D2, IgG4 S228P/kappa; also called 45AGX light chain / 57AHH heavy chain IgG4 S228P
In experiment [3], B4 returned an IC50 of 2.6 nM.

B5: Hu22D2 VH6/VL3 N55D (Ab 6) (antibody, human IgG4 S228P, kappa, V domains shown)
VH: QMQLVQSGPEVKKPGTSVKVSCKASGYTFTDYNVDWVRQARGQRLEWIGDINPNDGGTIYAQKFQERVTITVDKSTSTAYMELSSLRSEDTAVYYCARNYRWFGAMDHWGQGTTVTVSS
VL: DIVMTQTPLSLSVTPGQPASISCKASQSLDYEGDSDMNWYLQKPGQPPQLLIYGASNLESGVPDRFSGSGSGTDFTLKISRVEAEDVGVYYCQQSTEDPRTFGGGTKVEIKR
notes: Humanized 22D2, IgG4 S228P/kappa; also called Hu2D2; 45AGX light chain / 73AHD heavy chain IgG4 S228P
For B5, the concentration for half-maximal inhibition (IC50) in experiment [3] turned out to be 2.4 nM.

B6: Hu22D2 VH6/VL3 N55Q (Ab 8) (antibody, human IgG4 S228P, kappa, V domains shown)
VH: QMQLVQSGPEVKKPGTSVKVSCKASGYTFTDYNVDWVRQARGQRLEWIGDINPNQGGTIYAQKFQERVTITVDKSTSTAYMELSSLRSEDTAVYYCARNYRWFGAMDHWGQGTTVTVSS
VL: DIVMTQTPLSLSVTPGQPASISCKASQSLDYEGDSDMNWYLQKPGQPPQLLIYGASNLESGVPDRFSGSGSGTDFTLKISRVEAEDVGVYYCQQSTEDPRTFGGGTKVEIKR
notes: Humanized 22D2, IgG4 S228P/kappa; also called 45AGX light chain / 80AHG heavy chain IgG4 S228P
For B6, the IC50 in experiment [3] stood at 2.5 nM.

B7: Hu22D2 VH6/VL3 N55S (Ab 7) (antibody, human IgG4 S228P, kappa, V domains shown)
VH: QMQLVQSGPEVKKPGTSVKVSCKASGYTFTDYNVDWVRQARGQRLEWIGDINPNSGGTIYAQKFQERVTITVDKSTSTAYMELSSLRSEDTAVYYCARNYRWFGAMDHWGQGTTVTVSS
VL: DIVMTQTPLSLSVTPGQPASISCKASQSLDYEGDSDMNWYLQKPGQPPQLLIYGASNLESGVPDRFSGSGSGTDFTLKISRVEAEDVGVYYCQQSTEDPRTFGGGTKVEIKR
notes: Humanized 22D2, IgG4 S228P/kappa; also called 45AGX light chain / 21AHG heavy chain IgG4 S228P
With B7, the IC50 in experiment [3] was determined as 2.1 nM.

B8: LB148.11C9.1C1 (antibody, V domains shown)
VH: QVQLQQPGAELVMPGASAKMSCKASGYTLTDYWMHWVKQRPGQGLEWIGAIDISDSYSSYNQKFKGKATLTVDESSSTAYMQLTSLTSEDSAVYYCARSPFYNSRGGNYFDYWGQGTTLTVSS
VL: DIQMTQTTSSLSASLGDRVTISCRASQDISNYLNWYQQKPDGTVKLLIYYTSRLHSGVPSRFSGSGSGTDYSLTISNLEQEDIATYFCQQGDTLPPWTFGGGTKLEIK
notes: also called Lag3 clone 11C9; mouse x [LAG3_H] mAb (LB148.11C9.1C1) IgG1/kappa (HY)
In the case of B8, the IC50 in experiment [1] and in experiment [2] was 2 nM in each case.

B9: LB148.19E8.G1.1A1 (antibody, V domains shown)
VH: QIRLQQSGPELVKPGASVKISCKASGSSFTDYYINWVKQKPGQGLEWIGWIYPGSGNSIYNENFKAKATLTVDTSSSTAYMHLSSLTSEDTAVYFCAREADYDDALDYWGQGTSVTVSS
VL: HILLTQSPAILSVSPGERVSFSCRASQSIGTSIHWYQQRTNGSPRLLIKYASESISGIPSRFSGSGSGTDFTLSINSVESEDIADYYCQQSNSWPTYTFGGGTKLEIK
notes: also called Lag3 clone 19E8
For the molecule B9, the 50% inhibitory concentration (IC50) in experiment [1] and in experiment [2] was 2.8 nM in each case.
